Experimental data from article PMC10581246, “The presence of benzene ring activating CoA ligases for aromatics degradation in the ANaerobic MEthanotrophic (ANME) archaea” (Microbiology Spectrum, 2023).

How the values were obtained:
Experiment in all cases: purified protein
Settings in all cases: apparent, 1 mM ATP, 0.5 mM CoA, 10 mM MgCl2, 50 mM Tris-HCl pH 8.0, room temperature
[1] = test system: O=C(O)Cc1cccc(O)c1
[2] = test system: O=C(O)Cc1ccc(O)c(O)c1
[3] = test system: O=C(O)Cc1ccccc1
[4] = test system: O=C(O)Cc1ccc(O)cc1
[5] = test system: O=C(O)c1ccc(O)cc1
[6] = test system: O=C(O)c1cccc(O)c1
[7] = test system: O=C(O)c1ccccc1

“PaaKANME (PaaK1ANME) (ANME-2 cluster archaeon)” showed a Km [1] of 68.87 ± 9.425 µM, a kcat [1] of 0.254 ± 0.00895 s⁻¹ and a Km [2] of 42.80 ± 15.03 µM. It also gave a kcat [2] of 0.0976 ± 0.00722 s⁻¹, a Km [3] of 180.6 ± 32.18 µM and a kcat [3] of 0.153 ± 0.00755 s⁻¹. For the same substance, the Km [4] was 49.15 ± 12.54 µM and the kcat [4] was 0.148 ± 0.00881 s⁻¹.
BadAANME (ANME-2 cluster archaeon) showed a Km [5] of 55.08 ± 6.910 µM, a kcat [5] of 0.1086 ± 0.02963 s⁻¹ and a Km [6] of 76.97 ± 14.69 µM. It also gave a kcat [6] of 0.2197 ± 0.01127 s⁻¹, a Km [7] of 12.98 ± 1.563 µM and a kcat [7] of 0.1127 ± 0.002522 s⁻¹.
